Measurements as given in the supplement of paper PMC7125110.
± gives the standard error. Variants at the floor of the assay were thinned out.

B1: glmS ribozyme (parent)
chain: AUAAAAGCGCCAGAACUACAGAAAUGUAGUUGACGAGGAGGAGGUUUAUCGAAUUUUCGGCGGAUGCCUCCAAA

Key:
Details in all cases: with glucosamine-6-phosphate
glucosamine-6-phosphate [1] = variants of: B1; assay: self-cleavage kobs at 40 uM GlcN6P; higher = faster cleavage; RNA array
Outline: (§1)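 Tracking of barcoded ribozyme variants used a hybridised Cy3 probe at 37 °C, after in situ transcription by E. coli RNA polymerase on sequenced MiSeq chips. The flowed solution held 40 μM to 10 mM glucosamine-6-phosphate in HEPES/KCl/Mg(OAc)2 buffer, and imaging ran over ~14 h. kobs was taken from exponential decay fits of normalised per-tile medians, and kcat and KM from weighted Michaelis–Menten fits.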

glucosamine-6-phosphate [2] = variants of: B1; assay: self-cleavage kobs at 640 uM GlcN6P; higher = faster cleavage; RNA array
Outline: as §1

glucosamine-6-phosphate [3] = variants of: B1; assay: self-cleavage kobs at 2500 uM GlcN6P; higher = faster cleavage; RNA array
Outline: as §1

glucosamine-6-phosphate [4] = variants of: B1; assay: self-cleavage kobs at 10000 uM GlcN6P; higher = faster cleavage; RNA array
Outline: as §1

glucosamine-6-phosphate [5] = variants of: B1; assay: self-cleavage kobs at 160 uM GlcN6P; higher = faster cleavage; RNA array
Outline: as §1

## AUAAAAGCGCCAGAACUACAGAAAUGUAGUUGACGAGGAGGAGGUUUAUCGAAUUUUCGCCGGAUUCCUCCAAA [G60C G66U]
glucosamine-6-phosphate [1]
  self-cleavage kobs at 40 uM GlcN6P: < 1e-05 s⁻¹
glucosamine-6-phosphate [2]
  self-cleavage kobs at 640 uM GlcN6P: < 1e-05 s⁻¹
glucosamine-6-phosphate [3]
  self-cleavage kobs at 2500 uM GlcN6P: < 1e-05 s⁻¹

## AUAAAAGCGCCAGAACUACAGAAAUGUAGUUGACGAGGAGGAGGUUUAUCGCAUAUUCGGCGGAUGCCUCCAAA [A52C U55A]
glucosamine-6-phosphate [1]
  self-cleavage kobs at 40 uM GlcN6P: < 1e-05 s⁻¹
glucosamine-6-phosphate [4]
  self-cleavage kobs at 10000 uM GlcN6P: 3.4e-05 ± 1.3e-05 s⁻¹

## AUAAAAGAGCCAGAACUACAGAAAUGUAGUUGACGAGGACGAGGUUUAUCGAAUUUUCGGCGGAUGCCUCCAAA [C8A G40C]
glucosamine-6-phosphate [1]
  self-cleavage kobs at 40 uM GlcN6P: < 1e-05 s⁻¹
glucosamine-6-phosphate [5]
  self-cleavage kobs at 160 uM GlcN6P: < 1e-05 s⁻¹
glucosamine-6-phosphate [2]
  self-cleavage kobs at 640 uM GlcN6P: < 1e-05 s⁻¹
glucosamine-6-phosphate [3]
  self-cleavage kobs at 2500 uM GlcN6P: < 1e-05 s⁻¹
glucosamine-6-phosphate [4]
  self-cleavage kobs at 10000 uM GlcN6P: < 1e-05 s⁻¹

## AUAAAAGCGCCAGAACUACAGAAAUGUAGUUGACGAGGAGAAUGUUUAUCGAGUUUUCGGCGGAUGCCUCGAAA [G41A G43U A53G C71G]
glucosamine-6-phosphate [1]
  self-cleavage kobs at 40 uM GlcN6P: < 1e-05 s⁻¹
glucosamine-6-phosphate [3]
  self-cleavage kobs at 2500 uM GlcN6P: < 1e-05 s⁻¹

## AUAAAAGCGCCAGAACUACAGACAUGUAGUUGACGAGGAGGAGGUUUAUCGAAUUUUCGGCGGAUGCCUCUAAA [A23C C71U]
glucosamine-6-phosphate [1]
  self-cleavage kobs at 40 uM GlcN6P: 0.00121 ± 0.0003 s⁻¹
glucosamine-6-phosphate [5]
  self-cleavage kobs at 160 uM GlcN6P: 0.000719 ± 0.0002 s⁻¹
glucosamine-6-phosphate [2]
  self-cleavage kobs at 640 uM GlcN6P: 0.00652 ± 0.0018 s⁻¹

## AUAAAAGCGCCAGAACUACAGAAAUGUAAUUGACGAGGAGGAGGUUUAUCGAAUCUUCGGGGGAUGCCUCCAAA [G29A U55C C61G]
glucosamine-6-phosphate [1]
  self-cleavage kobs at 40 uM GlcN6P: < 1e-05 s⁻¹

## AUAAAAGCGCCAGAACUACAGAAAUGUAGAUGACGAGGAGGGGGUUUAUCGAAUUUUCGGCGGAUGCCUCCAAA [U30A A42G]
glucosamine-6-phosphate [1]
  self-cleavage kobs at 40 uM GlcN6P: 0.000294 ± 7.3e-05 s⁻¹
glucosamine-6-phosphate [2]
  self-cleavage kobs at 640 uM GlcN6P: 0.0017 ± 0.00047 s⁻¹
glucosamine-6-phosphate [4]
  self-cleavage kobs at 10000 uM GlcN6P: 0.0172 ± 0.0059 s⁻¹

## AUAAAAUCGCCAGAACUACAGAAAUGUAGUUGACGAGGAGGGGGUUUAUCGAAUUUUCGGCGGAUGCCUCCAAA [G7U A42G]
glucosamine-6-phosphate [1]
  self-cleavage kobs at 40 uM GlcN6P: < 1e-05 s⁻¹
glucosamine-6-phosphate [5]
  self-cleavage kobs at 160 uM GlcN6P: < 1e-05 s⁻¹
glucosamine-6-phosphate [2]
  self-cleavage kobs at 640 uM GlcN6P: < 1e-05 s⁻¹
glucosamine-6-phosphate [3]
  self-cleavage kobs at 2500 uM GlcN6P: < 1e-05 s⁻¹
glucosamine-6-phosphate [4]
  self-cleavage kobs at 10000 uM GlcN6P: < 1e-05 s⁻¹

## AUAAAAGCGGCAGAACUACAGAAAUGUACUUGACGAGGAAGAGGUUUAUCGAAUUUUCGGCGGAUGCCUCCAAA [C10G G29C G40A]
glucosamine-6-phosphate [1]
  self-cleavage kobs at 40 uM GlcN6P: < 1e-05 s⁻¹
glucosamine-6-phosphate [4]
  self-cleavage kobs at 10000 uM GlcN6P: < 1e-05 s⁻¹

## AUAAAAGCGGCAGAACUACAGAAAUGUAGUUGAUGAGGAGGAGGUUUAUCGAAUUUUCGGCGGAUGCCUCCAAA [C10G C34U]
glucosamine-6-phosphate [1]
  self-cleavage kobs at 40 uM GlcN6P: < 1e-05 s⁻¹
glucosamine-6-phosphate [5]
  self-cleavage kobs at 160 uM GlcN6P: < 1e-05 s⁻¹
glucosamine-6-phosphate [2]
  self-cleavage kobs at 640 uM GlcN6P: < 1e-05 s⁻¹
glucosamine-6-phosphate [3]
  self-cleavage kobs at 2500 uM GlcN6P: < 1e-05 s⁻¹
glucosamine-6-phosphate [4]
  self-cleavage kobs at 10000 uM GlcN6P: < 1e-05 s⁻¹

## AUAAAAGCGCCAGAACUACAGAAAUGUAGUUGAGCAGGAGGAGGUUUAUCGAAUUUUCGGCGGAUGCCUCCAAA [C34G G35C]
glucosamine-6-phosphate [1]
  self-cleavage kobs at 40 uM GlcN6P: < 1e-05 s⁻¹

## AUAAAAGCUCCAGAACUACAGAAAUGUAGUUGCCGAGGAGGAGGUUUAUCGAAUUUUCGGCGGAUGCCGCCAAA [G9U A33C U69G]
glucosamine-6-phosphate [1]
  self-cleavage kobs at 40 uM GlcN6P: < 1e-05 s⁻¹

## AUAAAAGCGCCAGAACUACAGAAAUGUAGUUGACGAGGAGGAUGUUUAUUGAAUUUUCGGCGGAUGCCUCCAAA [G43U C50U]
glucosamine-6-phosphate [1]
  self-cleavage kobs at 40 uM GlcN6P: < 1e-05 s⁻¹
glucosamine-6-phosphate [5]
  self-cleavage kobs at 160 uM GlcN6P: < 1e-05 s⁻¹
glucosamine-6-phosphate [2]
  self-cleavage kobs at 640 uM GlcN6P: < 1e-05 s⁻¹
glucosamine-6-phosphate [3]
  self-cleavage kobs at 2500 uM GlcN6P: < 1e-05 s⁻¹
glucosamine-6-phosphate [4]
  self-cleavage kobs at 10000 uM GlcN6P: < 1e-05 s⁻¹
